In the supplement of paper PMC10567573:

B1: TMEM175 (parent)
chain: SCTIIFLASIFQLAMWTTALLHQA

Variants of: B1
Experiment: protein stability index of a GFP-peptide fusion (GPS, HEK-293T) (PSI 1-6); higher = more stable
Conditions: c terminus: a fixed tail appended
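Further: lentivirally expressed fusions sorted by FACS into six bins by GFP to DsRed ratio, PSI derived from sequencing read proportions per bin multiplied by bin number.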

Protein stability index, by site and new letter:
T17: E 2.36, W 4, A 1.59, D 3.83, Y 2.83, H 4.62, V 2.22, L 3.31, R 2.01, P 2.64, N 3.8, S 2.31, K 2.94, F 1.74, Q 2.52, I 3.54
F6: P 2.59, R 2.56, N 2.86, E 2.76, Q 2.14, D 3.81, V 2.74, T 4.09, C 3.39, S 1.02, A 4.41, K 2.52
L7: C 3.2, P 2.79, H 3.64, W 3.1, R 3.25, G 4.01, F 1.87, V 3.55, Q 3.37, E 2.34, A 4.52, N 3.78, M 2.79, S 2.77, D 4.13, T 3.83, K 2.48
F11: E 3.04, Y 1.79, K 3.11, Q 3.1, V 2.09, T 3.38, R 5.97, I 2.56, A 3.92, M 1.87, D 2.62, S 2.19, C 2.29
I10: T 3.72, W 2.29, V 3.47, C 1.64, G 2.65, D 1.94, Y 3.52, H 3.64, Q 2.91, M 3.48, P 2.65, N 2.59, K 3.74
A19: T 3.07, W 3.12, H 1.58, M 3.22, E 2.73, P 4.62, K 2.76, R 2.19, D 2.3, L 2.11, I 2.14
S9: R 2.78, T 2.5, Y 2.66, W 4.47, P 2.31, M 2.49, Q 4.14, G 2.5, K 3.56, A 3.6, L 3.52, E 4.07
T3: M 2.56, V 2.11, F 2.75, H 2.04, Y 4.1, Q 3, W 3.07, A 3.36, L 2.92, I 3.33, K 2.84, E 1.72, D 2.86, S 2.57
A14: W 2.09, Q 4.22, S 2.58, R 3.53, E 1.9, I 3.4, D 4, N 2.62, H 3, G 3.94, M 3.19, L 4.29, T 2.73, F 2.76
L21: S 3.45, C 3.36, N 2.05, P 3.35, V 3.72, I 2.71, H 3.3, E 2.55, D 3.61, Q 2.64, A 1.45, K 3.7, F 2.81, R 3.98, T 3.02
Q12: F 2.61, V 2.25, L 3.15, I 3.51, C 3.71, Y 1.89, P 2.3, G 2.9, T 3.43, D 3.29, S 2.75, N 3.72, H 3.19, E 3.39
M15: A 3.24, V 3.45, Y 2.97, D 3.28, R 1.69, T 3.17, H 2.49, P 3.25, W 3.1, N 2.51, S 2.48, I 2.79, F 2.73, E 3.53, Q 2.52, K 2.96
